Values quoted from earlier work in patent US10906951B2, “Modified natural killer cells and natural killer cell lines having increased cytotoxicity” (ONK THERAPEUTICS LIMITED, priority 2015, dated 2021).
Residue numbers refer to the chain shown, from its start. Names and notes keep the numbering of the source.

B1: TRAIL variant (D269H/E195R): TRAIL variant of WO 2009/077857, encoded by the wildtype TRAIL gene containing the D269H/E195R mutation (protein)
chain: MAMMEVQGGPSLGQTCVLIVIFTVLLQSLCVAVTYVYFTNELKQMQDKYSKSGIACFLKEDDSYWDPNDEESMNSPCWQVKWQLRQLVRKMILRTSEETISTVQEKQQNISPLVRERGPQRVAAHITGTRGRSNTLSSPNSKNEKALGRKINSWESSRSGHSFLSNLHLRNGELVIHEKGFYYIYSQTYFRFQERIKENTKNDKQMVQYIYKYTSYPDPILLMKSARNSCWSKDAEYGLYSIYQGGIFELKENDRIFVSVTNEHLIDMHHEASFFGAFLVG
B2: T261L/G160E/H270D: TRAIL DcR variant, Leary 2016 (protein, UniProt P50591 1-281, looked up, variant T261L G160E H270D)
Tumor necrosis factor ligand …: B1 chain with G160E, R195E, T261L, H269D, H270D
B3: T261L/G160E/H270D/T200H: TRAIL DcR variant, Leary 2016 (protein, UniProt P50591 1-281, looked up, variant T261L G160E H270D T200H)
Tumor necrosis factor ligand …: B1 chain with G160E, R195E, T200H, T261L, H269D, H270D
B4: D218A: TRAIL DcR variant, WO 01/00832 (protein, UniProt P50591 1-281, looked up, variant D218A)
Tumor necrosis factor ligand …: B1 chain with R195E, D218A, H269D
B5: T261L/G160E: TRAIL DcR variant, Leary 2016 (protein, UniProt P50591 1-281, looked up, variant T261L G160E)
Tumor necrosis factor ligand …: B1 chain with G160E, R195E, T261L, H269D
B6: T200H: TRAIL DcR variant, Leary 2016 (protein, UniProt P50591 1-281, looked up, variant T200H)
Tumor necrosis factor ligand …: B1 chain with R195E, T200H, H269D
B7: H270D: TRAIL DcR variant, Leary 2016 (protein, UniProt P50591 1-281, looked up, variant H270D)
Tumor necrosis factor ligand …: B1 chain with R195E, H269D, H270D
B8: T261L/H270D: TRAIL DcR variant, Leary 2016 (protein, UniProt P50591 1-281, looked up, variant T261L H270D)
Tumor necrosis factor ligand …: B1 chain with R195E, T261L, H269D, H270D
B9: T261L: TRAIL DcR variant, Leary 2016 (protein, UniProt P50591 1-281, looked up, variant T261L)
Tumor necrosis factor ligand …: B1 chain with R195E, T261L, H269D
B10: D269H: TRAIL variant, Van der Sloot 2006 (protein, UniProt P50591 1-281, looked up, variant D269H)
Tumor necrosis factor ligand …: B1 chain with R195E
B11: D269A: TRAIL DR5 variant, WO 01/00832 (protein, UniProt P50591 1-281, looked up, variant D269A)
Tumor necrosis factor ligand …: B1 chain with R195E, H269A
B12: Y213W/S215D: TRAIL variant, MacFarlane 2005 (protein, UniProt P50591 1-281, looked up, variant Y213W S215D)
Tumor necrosis factor ligand …: B1 chain with R195E, Y213W, S215D, H269D
B13: T214R/E195R: TRAIL variant, Van der Sloot 2006 (protein, UniProt P50591 1-281, looked up, variant T214R E195R)
Tumor necrosis factor ligand …: B1 chain with T214R, H269D
B14: T214R: TRAIL variant, Van der Sloot 2006 (protein, UniProt P50591 1-281, looked up, variant T214R)
Tumor necrosis factor ligand …: B1 chain with R195E, T214R, H269D
B15: T214R/D269H: TRAIL variant, Van der Sloot 2006 (protein, UniProt P50591 1-281, looked up, variant T214R D269H)
Tumor necrosis factor ligand …: B1 chain with R195E, T214R
B16: E195R: TRAIL variant, Van der Sloot 2006 (protein, UniProt P50591 1-281, looked up, variant E195R)
Tumor necrosis factor ligand …: B1 chain with H269D
B17: Y240A: TRAIL DR5 variant, WO 01/00832 (protein, UniProt P50591 1-281, looked up, variant Y240A)
Tumor necrosis factor ligand …: B1 chain with R195E, Y240A, H269D
B18: N199V: TRAIL variant, MacFarlane 2005 (protein, UniProt P50591 1-281, looked up, variant N199V)
Tumor necrosis factor ligand …: B1 chain with R195E, N199V, H269D
B19: Y189A/Q193S/N199V/K201R/Y213W/S215D: TRAIL variant, MacFarlane 2005 (protein, UniProt P50591 1-281, looked up, variant Y189A Q193S N199V K201R Y213W S215D)
Tumor necrosis factor ligand …: B1 chain with Y189A, Q193S, R195E, N199V, K201R, Y213W, S215D, H269D
B20: S215K: TRAIL DR4 variant, WO 2009/066174 (protein, UniProt P50591 1-281, looked up, variant S215K)
Tumor necrosis factor ligand …: B1 chain with R195E, S215K, H269D
B21: R149N: TRAIL DR4 variant, WO 2009/066174 (protein, UniProt P50591 1-281, looked up, variant R149N)
Tumor necrosis factor ligand …: B1 chain with R149N, R195E, H269D
B22: K251D: TRAIL DR4 variant, WO 2009/066174 (protein, UniProt P50591 1-281, looked up, variant K251D)
Tumor necrosis factor ligand …: B1 chain with R195E, K251D, H269D
B23: S215D: TRAIL DR4 variant, WO 2009/066174 (protein, UniProt P50591 1-281, looked up, variant S215D)
Tumor necrosis factor ligand …: B1 chain with R195E, S215D, H269D
B24: R149M: TRAIL DR4 variant, WO 2009/066174 (protein, UniProt P50591 1-281, looked up, variant R149M)
Tumor necrosis factor ligand …: B1 chain with R149M, R195E, H269D
B25: K251Q: TRAIL DR4 variant, WO 2009/066174 (protein, UniProt P50591 1-281, looked up, variant K251Q)
Tumor necrosis factor ligand …: B1 chain with R195E, K251Q, H269D
B26: S215H: TRAIL DR4 variant, WO 2009/066174 (protein, UniProt P50591 1-281, looked up, variant S215H)
Tumor necrosis factor ligand …: B1 chain with R195E, S215H, H269D
B27: R149K: TRAIL DR4 variant, WO 2009/066174 (protein, UniProt P50591 1-281, looked up, variant R149K)
Tumor necrosis factor ligand …: B1 chain with R149K, R195E, H269D
B28: D218H: TRAIL DR4 variant, WO 2009/066174 (protein, UniProt P50591 1-281, looked up, variant D218H)
Tumor necrosis factor ligand …: B1 chain with R195E, D218H, H269D
B29: S159R: TRAIL DR4 variant, WO 2009/066174 (protein, UniProt P50591 1-281, looked up, variant S159R)
Tumor necrosis factor ligand …: B1 chain with S159R, R195E, H269D
B30: R149I: TRAIL DR4 variant, WO 2009/066174 (protein, UniProt P50591 1-281, looked up, variant R149I)
Tumor necrosis factor ligand …: B1 chain with R149I, R195E, H269D
B31: K251E: TRAIL DR4 variant, WO 2009/066174 (protein, UniProt P50591 1-281, looked up, variant K251E)
Tumor necrosis factor ligand …: B1 chain with R195E, K251E, H269D
B32: Q193H: TRAIL DR4 variant, WO 2009/066174 (protein, UniProt P50591 1-281, looked up, variant Q193H)
Tumor necrosis factor ligand …: B1 chain with Q193H, R195E, H269D
B33: G131K: TRAIL DR4 variant, WO 2009/066174 (protein, UniProt P50591 1-281, looked up, variant G131K)
Tumor necrosis factor ligand …: B1 chain with G131K, R195E, H269D
B34: Y189Q/R191K/Q193R/H264R/I266L/D267Q: TRAIL DR4 variant, MacFarlane 2005 (protein, UniProt P50591 1-281, looked up, variant Y189Q R191K Q193R H264R I266L D267Q)
Tumor necrosis factor ligand …: B1 chain with Y189Q, R191K, Q193R, R195E, H264R, I266L, D267Q, H269D

Tested on: TRAIL decoy receptors (DcR1 and DcR2)
Details: in words; known from WO 2009/077857, Leary 2016, WO 01/00832; cited from earlier work

| Molecule | affinity for TRAIL decoy receptors |
| --- | --- |
| B1 | reducing the affinity |
| B2 | decreased affinity for TRAIL decoy receptors |
| B3 | decreased affinity for TRAIL decoy receptors |
| B4 | DcR variants |
| B5 | decreased affinity for TRAIL decoy receptors |
| B6 | decreased affinity for TRAIL decoy receptors |
| B7 | decreased affinity for TRAIL decoy receptors |
| B8 | decreased affinity for TRAIL decoy receptors |
| B9 | decreased affinity for TRAIL decoy receptors |

Target: DR5 (Homo sapiens, UniProt O14763)
Details: in words; known from WO 2009/077857, Van der Sloot 2006, MacFarlane 2005, WO 01/00832; cited from earlier work

| Molecule | affinity for DR5 |
| --- | --- |
| B1 | significantly increases the affinity |
| B10 | increased affinity for DR5 |
| B11 | DR5 variants |
| B12 | increased affinity for DR5 |
| B13 | increased affinity for DR5 |
| B14 | increased affinity for DR5 |
| B15 | increased affinity for DR5 |
| B16 | increased affinity for DR5 |
| B17 | DR5 variants |
| B18 | increased affinity for DR5 |
| B19 | increased affinity for DR5 |

Target: DR4 (Homo sapiens, UniProt O00220)
Details: in words; known from WO 2009/066174, MacFarlane 2005; cited from earlier work

| Molecule | affinity for DR4 |
| --- | --- |
| B20 | increased affinity for DR4 |
| B21 | increased affinity for DR4 |
| B22 | increased affinity for DR4 |
| B23 | increased affinity for DR4 |
| B24 | increased affinity for DR4 |
| B25 | increased affinity for DR4 |
| B26 | increased affinity for DR4 |
| B27 | increased affinity for DR4 |
| B28 | increased affinity for DR4 |
| B29 | increased affinity for DR4 |
| B30 | increased affinity for DR4 |
| B31 | increased affinity for DR4 |
| B32 | increased affinity for DR4 |
| B33 | increased affinity for DR4 |
| B34 | DR4 variants |
